From patent publication US20220119534A1 (DRAGONFLY THERAPEUTICS, published 2022)
Numbering of substitutions follows the chain as printed. In names and notes the source's numbering stands. Several values for one entry are separate records, joined by “and”; a condition that tells them apart may be missing. Equal values may be shown once.

Assays:
[1] = target: T1, Human CLEC12A-His (human, UniProt Q5QGZ9 65-265); experiment: SPR Biacore 8K 37 C; TriNKET captured on anti-hFc chip, hCLEC12A-His as analyte; 1:1 fit; after 2 wks 25 C in CST pH 7.0, n=2
T1 construct: Recombinant soluble protein made in house (Dragonfly Tx); The hCLEC12A spot of the HuProt array is written under this molecule as well; also called hCLEC12A-His; hCLEC12A; not shown: His tag
T1 sequence: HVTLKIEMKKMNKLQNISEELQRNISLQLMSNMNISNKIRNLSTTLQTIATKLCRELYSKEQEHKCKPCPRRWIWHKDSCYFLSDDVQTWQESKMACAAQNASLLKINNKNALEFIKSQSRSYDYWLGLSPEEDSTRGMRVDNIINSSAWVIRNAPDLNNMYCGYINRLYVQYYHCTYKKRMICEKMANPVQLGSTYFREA

[2] = target: T2, Human CLEC12A-His (human, UniProt Q5QGZ9 65-265); experiment: SPR, 37 C, AB0192 captured, hCLEC12A-His analyte; average of 3 replicates
T2 construct: Recombinant soluble protein made in house; also called hCLEC12A-His; hCLEC12A; not shown: His tag
T2 sequence: T1 sequence

[3] = target: T3, Cynomolgus CD64 (FcγRI) (cynomolgus monkey, UniProt A0A2K5U901 33-309, Biotinylated and captured on the CAP chip (p-1094); the biotin site is not stated.); experiment: SPR 25C, average
T3 construct: Bought recombinant receptor; also called cFcγRI; Cynomolgus FcγRI; not shown: The vendor's biotinylation and purification tag (ACRO FCA-C82E8)

[4] = target: T4, Human CD64 (FcγRI) (human, UniProt P12314 16-288, biotinylated); experiment: SPR 25C, average
T4 construct: Bought recombinant receptor; also called hFcγRI; Human FcγRI
Experimental: Human and cynomolgus CD64, high and low affinity alleles of CD16a (V158 and F158, respectively), two alleles of CD32a (H131 and R131), CD16b, CD32b and cynomolgus CD16 were captured via biotin on a primed (according to the manufacturers instruction) Biacore chip. […] Due to irreversibility of streptavidin-biotin interaction, the capture step for all receptors except FcγRI (CD64) was performed just once prior to the start of the binding experiment. hCD64 and cyno CD64 capture on the CAP chip surface was performed during each cycle in accordance with the manufacturer's instructions for the Biotin CAPture kit.

[5] = target: T5, Human CLEC12A-His (recombinant, K244 WT) (human, UniProt Q5QGZ9 65-265); experiment: SPR, two-state fit; fully purified protein after low pH hold
T5 construct: Made in house (Dragonfly Tx); also called hCLEC12A; hCLEC12A-His; not shown: His tag
T5 sequence: T1 sequence

[6] = target: T5, Human CLEC12A-His (recombinant, K244 WT); experiment: SPR, two-state fit (kd1); control sample
Experimental: (§1) Briefly, human Fc specific antibodies were covalently immobilized at a density ˜8000-10000 resonance units (RU) on carboxy methyl dextran matrix of a CM5 biosensor chip via amine-coupling chemistry to create an anti-hFc IgG chip. […] Association was monitored for 300 seconds and dissociation was monitored for 600 seconds. Surfaces were regenerated between cycles with three pulses of 10 mM glycine-HCl, pH 1.7 injected for 20 seconds at 100 μl/min. HBS-EP+ (1×) with 0.1 mg/ml BSA was used as running buffer throughout the experiment. Experiments were performed at physiological temperature of 37° C. To obtain kinetic rate constants and overall binding affinity, double-referenced data were fit to a two-state kinetic model using Biacore 8K Insight Evaluation software (Cytiva).

[7] = target: T5, Human CLEC12A-His (recombinant, K244 WT); experiment: HuProt human proteome microarray, AB0089 at 1 µg/ml
Text: (§2) An array consisting of 22,000 full-length human proteins are expressed in S. cerevisiae yeast, purified, and are subsequently printed in duplicate on a microarray glass slide that allows thousands of interactions to be profiled in a high-throughput manner. […] S score is the difference of Z score of a given protein and the one rank next to it.

[8] = target: BC089418 (HuProt array JHU16002.P168E09) (human); experiment: as above
Text: as §2

[9] = target: T6, ECDHDC1 (HuProt array JHU25034.P240F11) (human); experiment: as above
T6 construct: Name as printed; may be a misprint of a gene name
Text: as §2

[10] = target: T5, Human CLEC12A-His (recombinant, K244 WT); experiment: SPR 37C, two-state fit (kd1), average
Experimental: as §1

[11] = target: T7, Human CLEC12A expressed on cells (Ba/F3-hCLEC12A, PL21, HL60) (human, UniProt Q5QGZ9 1-265); experiment: flow cytometry on PL21 AML cells
T7 construct: Ba/F3 cells transduced with human CLEC12A; PL21 and HL60 AML lines express it endogenously; also called cell surface expressed CLEC12A
T7 sequence: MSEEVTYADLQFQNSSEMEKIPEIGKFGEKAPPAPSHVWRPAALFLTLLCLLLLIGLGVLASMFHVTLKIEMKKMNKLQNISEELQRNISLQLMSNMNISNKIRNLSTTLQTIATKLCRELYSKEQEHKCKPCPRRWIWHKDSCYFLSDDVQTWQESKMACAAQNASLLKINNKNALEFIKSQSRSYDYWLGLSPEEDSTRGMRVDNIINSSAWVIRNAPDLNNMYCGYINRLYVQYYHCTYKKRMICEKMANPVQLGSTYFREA
Text: The EC50 values were derived from the cell binding curves using GraphPad Prism software (four parameter logistic non-linear regression curve fitting model).

[12] = target: T8, BCMA; experiment: SPR specificity test; unrelated recombinant antigen at up to 500 nM
T8 chain: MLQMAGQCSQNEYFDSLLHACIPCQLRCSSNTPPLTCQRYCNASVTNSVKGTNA

[13] = target: T9, CD33; experiment: as above
T9 construct: recombinant protein

[14] = target: HER2; experiment: as above
[15] = target: T10, human CLEC12A expressed on cells (human, UniProt Q5QGZ9 1-265); experiment: flow cytometry, hCLEC12A+ Ba/F3
T10 construct: Transduced isogenic cells or endogenous expression on AML cells; also called RMA-hCLEC12A; Ba/F3-hCLEC12A
T10 sequence: T7 sequence

[16] = target: T11, recombinant human CD32b (human, UniProt P31994 46-217, limits assumed, biotinylated); experiment: SPR 25C, steady state
T11 construct: also called FcγRIIb
T11 sequence (looked up): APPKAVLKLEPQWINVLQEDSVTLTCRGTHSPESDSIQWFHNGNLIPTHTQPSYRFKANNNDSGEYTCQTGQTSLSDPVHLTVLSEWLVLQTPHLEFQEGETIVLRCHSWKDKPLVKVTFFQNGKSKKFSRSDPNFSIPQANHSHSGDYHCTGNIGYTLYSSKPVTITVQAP

[17] = target: T12, recombinant human CD16a V158 (human, UniProt P08637 17-208, biotinylated); experiment: SPR 25C, kinetic fit
T12 construct: also called FcγRIIIa V158; hCD16aV

[18] = target: T13, recombinant human CD16a F158 (human, UniProt P08637 17-208); experiment: SPR 25C, steady state
T13 construct: also called FcγRIIIa F158
T13 sequence (P08637 17-208 limits assumed): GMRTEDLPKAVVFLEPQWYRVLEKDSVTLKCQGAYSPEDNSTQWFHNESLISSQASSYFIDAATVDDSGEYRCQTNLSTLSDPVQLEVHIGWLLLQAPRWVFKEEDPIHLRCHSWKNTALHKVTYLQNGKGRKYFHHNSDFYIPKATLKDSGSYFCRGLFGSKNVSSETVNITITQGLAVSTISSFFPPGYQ

T3 sequence (A0A2K5U901 entry or part of it limits assumed): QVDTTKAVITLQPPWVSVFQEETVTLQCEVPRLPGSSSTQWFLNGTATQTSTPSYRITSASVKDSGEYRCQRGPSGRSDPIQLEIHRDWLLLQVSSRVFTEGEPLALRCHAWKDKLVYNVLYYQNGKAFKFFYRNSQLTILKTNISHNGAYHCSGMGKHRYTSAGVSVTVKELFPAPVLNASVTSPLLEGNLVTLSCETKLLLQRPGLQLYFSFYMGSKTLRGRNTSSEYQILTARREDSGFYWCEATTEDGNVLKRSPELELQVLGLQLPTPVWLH
T12 sequence (P08637 17-208 F176V limits assumed): as the sequence (P08637 17-208 limits assumed) above, with F160V counted along it
T4 sequence (P12314 16-288 limits assumed): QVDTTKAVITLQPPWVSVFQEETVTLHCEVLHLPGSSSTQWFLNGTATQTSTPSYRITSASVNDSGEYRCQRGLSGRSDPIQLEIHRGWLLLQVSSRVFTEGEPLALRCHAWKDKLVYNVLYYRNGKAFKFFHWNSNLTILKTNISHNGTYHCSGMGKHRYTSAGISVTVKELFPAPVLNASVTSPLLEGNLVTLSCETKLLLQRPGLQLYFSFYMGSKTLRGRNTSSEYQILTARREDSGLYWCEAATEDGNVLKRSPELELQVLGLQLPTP
T6 sequence (Q9NTX5 whole entry): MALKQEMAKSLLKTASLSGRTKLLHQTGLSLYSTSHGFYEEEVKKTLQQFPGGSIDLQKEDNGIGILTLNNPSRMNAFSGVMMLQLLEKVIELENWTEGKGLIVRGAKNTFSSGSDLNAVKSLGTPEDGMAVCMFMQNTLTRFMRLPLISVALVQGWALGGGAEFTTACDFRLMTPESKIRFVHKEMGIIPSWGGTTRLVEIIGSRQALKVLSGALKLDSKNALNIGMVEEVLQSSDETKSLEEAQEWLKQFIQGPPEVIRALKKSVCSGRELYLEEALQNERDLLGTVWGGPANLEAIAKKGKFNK

B1: F3'-1602 TriNKET (bispecific antibody, human IgG1, kappa)
chain: QLQLQESGPGLVKPSETLSLTCTVSGFSLTNYGLHWIRQPPGKCLEWIGVIWSGGKTDYNPSLKSRVTISKDTSKNQFSLKLSSVQAADTAVYYCAKYDYDDSLDYWGQGTLVTVSSGGGGSGGGGSGGGGSGGGGSDIQMTQSPSSLSASVGDRVTITCHASQNINFWLSWYQQKPGKAPKLLIYEASNLHTGVPSRFSGSGSGTRFTLTISSLQPEDIATYYCQQSHSYPLTFGCGTKLEIKGSDKTHTCPPCPAPELLGGPSVFLFPPKPKDTLMISRTPEVTCVVVDVSHEDPEVKFNWYVDGVEVHNAKTKPREEQYNSTYRVVSVLTVLHQDWLNGKEYKCKVSNKALPAPIEKTISKAKGQPREPRVYTLPPCRDELTKNQVSLTCLVKGFYPSDIAVEWESNGQPENNYKTTPPVLVSDGSFTLYSKLTVDKSRWQQGNVFSCSVMHEALHNHYTQKSLSLSPG
heavy: EVQLVESGGGLVKPGGSLRLSCAASGFTFSSYSMNWVRQAPGKGLEWVSSISSSSSYIYYADSVKGRFTISRDNAKNSLYLQMNSLRAEDTAVYYCARGAPIGAAAGWFDPWGQGTLVTVSSASTKGPSVFPLAPSSKSTSGGTAALGCLVKDYFPEPVTVSWNSGALTSGVHTFPAVLQSSGLYSLSSVVTVPSSSLGTQTYICNVNHKPSNTKVDKKVEPKSCDKTHTCPPCPAPELLGGPSVFLFPPKPKDTLMISRTPEVTCVVVDVSHEDPEVKFNWYVDGVEVHNAKTKPREEQYNSTYRVVSVLTVLHQDWLNGKEYKCKVSNKALPAPIEKTISKAKGQPREPQVCTLPPSRDELTENQVSLTCLVKGFYPSDIAVEWESNGQPENNYKTTPPVLDSDGSFFLYSWLTVDKSRWQQGNVFSCSVMHEALHNHYTQKSLSLSPG
light: DIQMTQSPSSVSASVGDRVTITCRASQGISSWLAWYQQKPGKAPKLLIYAASSLQSGVPSRFSGSGSGTDFTLTISSLQPEDFATYYCQQGVSFPRTFGGGTKVEIKRTVAAPSVFIFPPSDEQLKSGTASVVCLLNNFYPREAKVQWKVDNALQSGNSQESVTEQDSKDSTYSLSSTLTLSKADYEKHKVYACEVTHQGLSSPVTKSFNRGEC
notes: Trispecific F3' format: CLEC12A scFv-Fc paired with NKG2D Fab-Fc; Stressed and control samples of the stability studies are the same molecule; also called AB0237
Kd [1]: 0.93 nM
koff [1]: 0.000765 s⁻¹
kon [1]: 824000 M⁻¹ s⁻¹

B2: AB0192 TriNKET (other)
chain: EVQLVESGGGVVQPGGSLRLSCAASGFTFNAFGMHWVRQAPGKCLEWVAFISSGSTSIYYANTVKGRFTISRDNSKNTLYLQMNSLRAEDTAVYYCARDGYPTGGAMDYWGQGTSVTVSSGGGGSGGGGSGGGGSGGGGSDIQMTQSPSSLSASVGDRVTITCKASQDIYNYLSWFQQKPGKAPKPLIYRANILVSGVPSRFSGSGSGQDYTFTISSLQPEDIATYYCLQFDAFPFTFGCGTKLEIKGSDKTHTCPPCPAPELLGGPSVFLFPPKPKDTLMISRTPEVTCVVVDVSHEDPEVKFNWYVDGVEVHNAKTKPREEQYNSTYRVVSVLTVLHQDWLNGKEYKCKVSNKALPAPIEKTISKAKGQPREPRVYTLPPCRDELTKNQVSLTCLVKGFYPSDIAVEWESNGQPENNYKTTPPVLVSDGSFTLYSKLTVDKSRWQQGNVFSCSVMHEALHNHYTQKSLSLSPG
heavy: B1 heavy
light: B1 light
notes: the condition stands under assay; also called AB0192 Lot AB0192-005
Kd [2]: 1.81 nM
koff [2]: 0.0014 s⁻¹
kon [2]: 776000 M⁻¹ s⁻¹

B3: AB0089 TriNKET (bispecific antibody, human IgG1, kappa)
chain: B1 chain with S53V, K56A, K71V, Y98G, D101G, S103T, R207D, I220F
heavy: B1 heavy
light: B1 light
notes: F3' format heterodimer of three chains; human IgG1 Fc with EW-RVT and Y349C/S354C mutations; also called AB0089 Lot AB0089-002; CLEC12A TriNKET AB0089
Kd [3]: 1.5 nM
koff [3]: 8.1e-05 s⁻¹
kon [3]: 55000 M⁻¹ s⁻¹
Kd [4]: 5.1 nM
koff [4]: 0.00023 s⁻¹
kon [4]: 46000 M⁻¹ s⁻¹
Kd [5]: 0.53 nM
koff [6]: 0.0476 s⁻¹
Z score [7]: 151
Z score [8]: 3.7
Z score [9]: 3.75
koff [10]: 0.0435 s⁻¹
EC50 [11]: 0.45 nM

B4: F3'-1602 TriNKET (other)
chain: B1 chain
heavy: B1 heavy
light: B1 light
notes: CLEC12A scFv-Fc, NKG2D A49MI Fab-Fc, human IgG1 Fc; also called AB0237
Response (RU) [12]: 0.2 RU
Response (RU) [13]: 0.2 RU
Response (RU) [14]: 0.1 RU
EC50 [15]: 2 nM
Max binding MFI [15]: 14700 MFI
Kd [16]: 7200 nM and 6100 nM and 6900 nM
Kd [17]: 234 nM and 235 nM and 243 nM and 241 nM
koff [17]: 0.022 s⁻¹ and 0.023 s⁻¹
kon [17]: 96000 M⁻¹ s⁻¹ and 95000 M⁻¹ s⁻¹ and 93000 M⁻¹ s⁻¹
Kd [18]: 1130 nM and 1120 nM and 1090 nM
